Bridge positions count the residues as written; N and C are the ends. Square brackets hold non-standard residues; d marks the D form. Primed or numbered codes have the meaning given here. Side chains are listed from the residue outwards. Ends that are not written are not given here. * marks the point of attachment. Gd^D = GdDOTAGA (gadolinium DOTAGA chelate); Tyr(3-Cl) = N[C@@H](Cc1ccc(O)c(Cl)c1)C(=O)O; Bip = N[C@@H](Cc1ccc(-c2ccccc2)cc1)C(=O)O; Gd^T(3) = GdDTPA attached via thiourea; 1Nal = N[C@@H](Cc1cccc2ccccc12)C(=O)O; hPhe = N[C@@H](CCc1ccccc1)C(=O)O; Cha = N[C@@H](CC1CCCCC1)C(=O)O; K(Gd^T)Gd^T = not defined here; Pen = CC(C)(S)[C@H](N)C(=O)O; Phg = N[C@H](C(=O)O)c1ccccc1; Gd^T″ = GdDTPA-thiourea; Cbz = O=C(OCc1ccccc1)*
Tests used:
[1] = target: T1, human collagen type I, acid soluble, extracted from placenta (Sigma C7774) (human, UniProt P02452 162-1218; P08123 80-1119); experiment: dried collagen assay
T1 construct: tissue extract, gelled and dried in wells; also called dried human collagen; h-Collagen
T1 sequence (P02452 162-1218 limits assumed, chain 1 of 2): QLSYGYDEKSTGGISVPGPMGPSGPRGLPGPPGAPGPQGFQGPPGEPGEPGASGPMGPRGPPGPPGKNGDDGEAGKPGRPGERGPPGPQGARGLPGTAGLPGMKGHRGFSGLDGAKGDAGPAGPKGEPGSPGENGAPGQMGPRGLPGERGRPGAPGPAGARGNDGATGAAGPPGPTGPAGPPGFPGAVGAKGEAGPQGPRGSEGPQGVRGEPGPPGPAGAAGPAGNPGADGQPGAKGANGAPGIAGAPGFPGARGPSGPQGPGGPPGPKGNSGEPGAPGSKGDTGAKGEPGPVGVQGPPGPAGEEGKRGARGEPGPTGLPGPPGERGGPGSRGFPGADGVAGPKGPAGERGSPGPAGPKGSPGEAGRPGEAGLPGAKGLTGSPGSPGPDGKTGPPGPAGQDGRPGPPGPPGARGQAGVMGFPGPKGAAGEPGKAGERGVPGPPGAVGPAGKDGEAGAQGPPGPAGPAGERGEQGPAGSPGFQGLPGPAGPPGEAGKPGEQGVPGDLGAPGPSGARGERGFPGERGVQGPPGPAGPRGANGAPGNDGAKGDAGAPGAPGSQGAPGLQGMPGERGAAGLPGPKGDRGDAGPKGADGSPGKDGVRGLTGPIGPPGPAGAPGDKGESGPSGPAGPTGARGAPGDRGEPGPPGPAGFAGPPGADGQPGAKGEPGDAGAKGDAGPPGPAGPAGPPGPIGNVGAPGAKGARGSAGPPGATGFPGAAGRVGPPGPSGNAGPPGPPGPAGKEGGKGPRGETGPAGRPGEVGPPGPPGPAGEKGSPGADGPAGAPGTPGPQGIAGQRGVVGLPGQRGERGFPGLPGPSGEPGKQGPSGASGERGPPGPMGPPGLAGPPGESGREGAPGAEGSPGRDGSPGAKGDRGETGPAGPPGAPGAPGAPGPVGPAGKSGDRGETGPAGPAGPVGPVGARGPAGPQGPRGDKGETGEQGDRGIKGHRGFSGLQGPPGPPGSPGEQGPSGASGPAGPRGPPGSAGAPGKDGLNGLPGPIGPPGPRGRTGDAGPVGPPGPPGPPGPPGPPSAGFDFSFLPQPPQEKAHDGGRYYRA
T1 sequence (P08123 80-1119 limits assumed, chain 2 of 2): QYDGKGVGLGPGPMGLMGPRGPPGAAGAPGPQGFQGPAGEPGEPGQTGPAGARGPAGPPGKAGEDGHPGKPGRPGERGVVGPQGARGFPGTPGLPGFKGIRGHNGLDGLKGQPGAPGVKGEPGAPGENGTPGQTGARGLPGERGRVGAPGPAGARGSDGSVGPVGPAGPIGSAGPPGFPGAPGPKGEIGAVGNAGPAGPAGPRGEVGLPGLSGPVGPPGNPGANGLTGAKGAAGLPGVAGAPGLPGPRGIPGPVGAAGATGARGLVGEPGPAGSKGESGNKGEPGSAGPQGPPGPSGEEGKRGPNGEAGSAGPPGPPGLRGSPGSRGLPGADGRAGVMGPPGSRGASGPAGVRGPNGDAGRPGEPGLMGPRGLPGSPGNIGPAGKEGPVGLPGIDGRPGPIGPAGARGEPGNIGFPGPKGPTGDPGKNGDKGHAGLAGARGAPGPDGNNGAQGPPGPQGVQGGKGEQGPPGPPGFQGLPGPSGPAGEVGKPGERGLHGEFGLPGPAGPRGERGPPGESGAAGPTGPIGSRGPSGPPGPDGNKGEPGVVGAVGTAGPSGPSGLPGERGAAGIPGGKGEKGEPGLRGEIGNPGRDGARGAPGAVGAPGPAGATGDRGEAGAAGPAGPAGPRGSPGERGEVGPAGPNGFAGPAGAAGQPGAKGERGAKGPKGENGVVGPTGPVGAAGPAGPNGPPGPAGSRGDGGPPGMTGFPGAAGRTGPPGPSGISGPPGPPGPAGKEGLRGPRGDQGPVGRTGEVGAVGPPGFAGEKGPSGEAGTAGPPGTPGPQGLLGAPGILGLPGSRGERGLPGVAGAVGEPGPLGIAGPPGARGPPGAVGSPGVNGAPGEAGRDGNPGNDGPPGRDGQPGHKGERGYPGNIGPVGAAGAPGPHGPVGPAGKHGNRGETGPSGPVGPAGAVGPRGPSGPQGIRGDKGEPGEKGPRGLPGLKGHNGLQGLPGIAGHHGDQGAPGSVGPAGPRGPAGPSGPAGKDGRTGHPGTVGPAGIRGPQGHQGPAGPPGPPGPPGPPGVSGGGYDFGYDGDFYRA

[2] = target: T2, rat collagen, acid soluble, type I, rat tail (Upstate 08-115) (rat, UniProt P02454 152-1207; P02466 86-1125); experiment: dried collagen assay
T2 construct: tissue extract, gelled and dried in wells; also called dried rat collagen
T2 sequence (P02454 152-1207, chain 1 of 2): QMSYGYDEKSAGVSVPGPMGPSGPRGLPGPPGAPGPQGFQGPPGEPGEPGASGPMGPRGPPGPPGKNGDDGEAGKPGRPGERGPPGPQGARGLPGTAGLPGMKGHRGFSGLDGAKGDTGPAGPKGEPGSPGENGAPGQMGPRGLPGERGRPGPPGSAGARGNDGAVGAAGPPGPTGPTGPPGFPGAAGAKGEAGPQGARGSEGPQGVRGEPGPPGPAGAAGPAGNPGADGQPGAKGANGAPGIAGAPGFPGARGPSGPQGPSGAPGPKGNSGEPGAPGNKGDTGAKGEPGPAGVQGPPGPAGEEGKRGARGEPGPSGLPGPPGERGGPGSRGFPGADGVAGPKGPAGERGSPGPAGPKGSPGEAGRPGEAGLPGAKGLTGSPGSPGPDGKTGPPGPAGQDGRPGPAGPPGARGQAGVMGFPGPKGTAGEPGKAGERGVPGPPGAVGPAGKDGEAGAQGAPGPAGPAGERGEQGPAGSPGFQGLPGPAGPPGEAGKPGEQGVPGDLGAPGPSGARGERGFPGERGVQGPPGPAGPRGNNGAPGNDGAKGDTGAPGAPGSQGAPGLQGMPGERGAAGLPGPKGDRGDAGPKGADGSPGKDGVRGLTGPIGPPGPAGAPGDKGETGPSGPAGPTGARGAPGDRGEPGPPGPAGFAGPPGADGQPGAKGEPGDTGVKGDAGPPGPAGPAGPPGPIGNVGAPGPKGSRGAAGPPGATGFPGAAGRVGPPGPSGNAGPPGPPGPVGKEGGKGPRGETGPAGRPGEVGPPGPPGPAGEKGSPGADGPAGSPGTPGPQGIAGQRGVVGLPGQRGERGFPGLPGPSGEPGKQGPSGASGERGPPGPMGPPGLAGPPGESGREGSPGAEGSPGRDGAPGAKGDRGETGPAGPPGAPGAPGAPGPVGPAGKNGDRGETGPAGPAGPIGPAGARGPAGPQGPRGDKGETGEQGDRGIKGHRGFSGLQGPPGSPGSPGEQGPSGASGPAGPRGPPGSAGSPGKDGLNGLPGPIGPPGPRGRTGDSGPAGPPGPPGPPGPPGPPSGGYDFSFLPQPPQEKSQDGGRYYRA
T2 sequence (P02466 86-1125, chain 2 of 2): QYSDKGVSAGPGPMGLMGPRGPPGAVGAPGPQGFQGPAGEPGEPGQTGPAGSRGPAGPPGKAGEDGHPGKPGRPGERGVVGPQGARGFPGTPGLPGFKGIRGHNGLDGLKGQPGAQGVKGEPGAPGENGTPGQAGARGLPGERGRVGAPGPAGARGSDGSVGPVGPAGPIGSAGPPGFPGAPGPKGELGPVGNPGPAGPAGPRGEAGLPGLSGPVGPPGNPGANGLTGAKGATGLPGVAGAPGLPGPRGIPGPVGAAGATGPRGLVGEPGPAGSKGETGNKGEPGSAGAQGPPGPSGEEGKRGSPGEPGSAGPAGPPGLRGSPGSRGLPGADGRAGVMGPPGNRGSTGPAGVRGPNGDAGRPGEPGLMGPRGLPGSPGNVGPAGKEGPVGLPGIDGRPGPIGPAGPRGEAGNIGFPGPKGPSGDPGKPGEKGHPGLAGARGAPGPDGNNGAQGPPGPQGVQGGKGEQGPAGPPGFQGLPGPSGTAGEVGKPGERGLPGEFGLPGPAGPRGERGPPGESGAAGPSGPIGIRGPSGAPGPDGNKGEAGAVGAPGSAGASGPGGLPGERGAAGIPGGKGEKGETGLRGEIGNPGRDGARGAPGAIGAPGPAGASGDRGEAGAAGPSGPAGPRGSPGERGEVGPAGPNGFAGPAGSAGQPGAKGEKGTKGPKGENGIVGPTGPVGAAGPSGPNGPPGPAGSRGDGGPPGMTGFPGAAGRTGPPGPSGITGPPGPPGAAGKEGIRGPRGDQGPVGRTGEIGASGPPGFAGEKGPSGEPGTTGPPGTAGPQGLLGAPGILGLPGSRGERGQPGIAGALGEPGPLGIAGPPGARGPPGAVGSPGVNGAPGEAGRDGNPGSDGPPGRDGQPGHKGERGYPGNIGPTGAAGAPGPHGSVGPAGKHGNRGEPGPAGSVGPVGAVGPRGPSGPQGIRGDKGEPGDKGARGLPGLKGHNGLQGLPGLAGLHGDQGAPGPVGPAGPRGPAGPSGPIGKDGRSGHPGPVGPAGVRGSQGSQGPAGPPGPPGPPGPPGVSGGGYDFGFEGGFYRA

| Binder | % bound [1] | % bound [2] |
| --- | --- | --- |
| {Gd^T(3)}-GQWHCTT[Cha]FPHH[dY]CLYG (disulfide 5-14; not fully specified (C-terminus)) [Compound ID 918] | 19% | 0% |
| GQWHCTTYFPHHYCLYG (disulfide 5-14 (inferred); not fully specified (N-terminus)) [Compound ID 919] | 93% | 93% |
| {Gd^D}-GK([Gly-Gd^D])QWHCTTYFPHHYCLYG (disulfide 6-15 (inferred)) [Compound ID 961] | 54% | 55% |
| {Gd^T″}-K(Gd^T″)K(K(Gd^T)Gd^T)GQWHCTTYFPHHYCLYG (disulfide 7-16 (inferred); reading uncertain) [Compound ID 960] | 30% | 34% |
| {Gd^T″}-AWHCTTRFPAHYCLYG (disulfide 4-13 (inferred)) [Compound ID 937] | 11% | 14% |
| {Gd^T″}-GQWHCTTRFPHHYCLYGK(K(Gd^T)Gd^T) (disulfide 5-14 (inferred); reading uncertain) [Compound ID 955] | 51% | 36% |
| {Gd^T″}-PPWHCTTLFPHH[dY]CLYG (disulfide 5-14 (inferred); not fully specified (C-terminus)) [Compound ID 912] | 20% | 0% |
| Cbz-GQWHCTTRFPHHYCLYGK (disulfide 5-14 (inferred); not fully specified (residue 18)) [Compound ID 925] | 64% | 62% |
| {Gd^T″}-GQWHCTT[Tyr(3-Cl)]FPHH[dY]CLYG (disulfide 5-14 (inferred); not fully specified (C-terminus)) [Compound ID 916] | 23% | 0% |
| {Gd^T″}-GQWHCTTYFPHH[dY]CLYG (disulfide 5-14 (inferred); not fully specified (C-terminus)) [Compound ID 914] | 19% | 0% |
| {Gd^T(3)}-GQWHCTTRFPHHYC[hPhe]YG (disulfide 5-14) [Compound ID 932] | 59% | 79% |
| {Gd^T″}-GK([Gly-Gd^T″])WHCYTYFPHHYCLYGK(Gd^T″) (disulfide 5-14 (inferred)) [Compound ID 996] | 76% | 67% |
| {Gd^T(3)}-GK([Gly-Gd^T(3)])WHCTTYFPHHYCLY[Bip]K(Gd^T(3)) (disulfide 5-14; not fully specified (C-terminus)) [Compound ID 977] | 40% | 43% |
| {Gd^T(3)}-GQWH[Pen]TTRFPHHYCLYG (disulfide 5-14; not fully specified (C-terminus)) [Compound ID 896] | 50% | 41% |
| {Gd^T″}-AWHCTTLFPHH[dY]CLYG (disulfide 4-13 (inferred); not fully specified (C-terminus)) [Compound ID 909] | 14% | 0% |

Continued, values first:

| % bound [1] | % bound [2] | Binder |
| --- | --- | --- |
| 75% | 64% | {Gd^T(3)}-GK([Gly-Gd^T(3)])WHCYTYFPHH[1Nal]CLYG (disulfide 5-14; not fully specified (C-terminus)) [Compound ID 992] |
| 56% | 68% | {Gd^T″}-GK([Gly-Gd^T″])WHCYTYFPHHYCLYFK(Gd^T″) (disulfide 5-14 (inferred); not fully specified (C-terminus)) [Compound ID 985] |
| 86% | 84% | {Gd^T″}-GQWHCYTYFPHHYCLYGK(Gd^T″) (disulfide 5-14 (inferred); not fully specified (C-terminus)) [Compound ID 994] |
| 67% | 74% | {Gd^T″}-GK([Gly-Gd^T″])WHCYTYFPHHYCLYVK(Gd^T″) (disulfide 5-14 (inferred); not fully specified (C-terminus)) [Compound ID 989] |
| 70% | 64% | {Gd^T″}-GK([Gly-Gd^T″])WHCYTYFPHHYCVYYK(Gd^T″) (disulfide 5-14 (inferred); not fully specified (C-terminus)) [Compound ID 975] |
| 51% | 42% | {Gd^T″}-GK([Gly-Gd^T″])WHCYTK(Gd^T″)FPHHYCLYGK(Gd^T″) (disulfide 5-14 (inferred)) [Compound ID 995] |
| 75% | 70% | {Gd^T″}-GQWHCYTK(Gd^T″)FPHHYCLYGK(Gd^T″) (disulfide 5-14 (inferred); not fully specified (C-terminus)) [Compound ID 993] |
| 71% | 69% | {Gd^T″}-GK([Gly-Gd^T″])WHCYTYFPHHYCVYGK(Gd^T″) (disulfide 5-14 (inferred); not fully specified (C-terminus)) [Compound ID 974] |
| 62% | 57% | {Gd^T″}-GK([Gly-Gd^T″])WHCTTYFPHHYCLYYK(Gd^T″) (disulfide 5-14 (inferred); not fully specified (C-terminus)) [Compound ID 976] |
| 62% | 68% | {Gd^T″}-GK([Gly-Gd^T″])WHCYTYFPHHYCLYYK(Gd^T″) (disulfide 5-14 (inferred); not fully specified (C-terminus)) [Compound ID 987] |
| 69% | 71% | {Gd^T″}-GK([Gly-Gd^T″])WHCYTYFPHHYCLY[dY]K(Gd^T″) (disulfide 5-14 (inferred); not fully specified (C-terminus)) [Compound ID 988] |
| 60% | 67% | {Gd^T(3)}-GK([Gly-Gd^T(3)])WHCYTYFPHHYCLY[Phg]K(Gd^T(3)) (disulfide 5-14; not fully specified (C-terminus)) [Compound ID 986] |

From US20080044360A1 (COLLAGEN MEDICAL, published 2008)
